In article PMC8604303:

Columns and labels:
[1] = target: C5b-8 (MAC precursor of C5b, C6, C7 and C8) assembled on E. coli (human) (UniProt P01031); assay: flow cytometry on cells; E. coli MG1655 labelled with C5b-7, washed, 10 nM C8 and a concentration range of Cy5-labelled C9 for 30 min; geoMFI
[2] = target: C5b-8 (MAC precursor of C5b, C6, C7 and C8) assembled on E. coli (human) (UniProt P01031); assay: flow cytometry on cells; E. coli MG1655 labelled with C5b-7 (10% C8-depleted serum, 30 min), washed, 10 nM C8 for 15 min, then 20 nM Cy5-labelled C9 for 30 min, no DTT; RPMI + 0.05% HSA; geoMFI
[3] = target: C5b-8 (MAC precursor of C5b, C6, C7 and C8) assembled on E. coli (human) (UniProt P01031); assay: flow cytometry on cells; complement-sensitive E. coli (MG1655, BW25113, MC1061, 547563.1, CGSC7740 wildtype) in 3% C9-depleted serum with 25 nM Cy5-labelled C9 for 30 min at 37 C; Syto9 trigger; MFI
[4] = target: C5b-8 (MAC precursor of C5b, C6, C7 and C8) assembled on E. coli (human) (UniProt P01031); assay: flow cytometry on cells; complement-resistant E. coli that express LPS O-Ag (552059.1, 552060.1, 567705.1, CGSC7740 wbbL+) in 3% C9-depleted serum with 25 nM Cy5-labelled C9 (up to 10-fold more on 552059.1) for 30 min at 37 C; MFI
[5] = target: C9 TMH-1 lock mutant (C9_(TMH-1 lock), F262C V405C) (human) (UniProt P02748)
[6] = target: C9 TMH-1 lock mutant (C9_(TMH-1 lock), F262C V405C) (human) (UniProt P02748); remark: listed apart in the source
[7] = target: C5b-8 (MAC precursor of C5b, C6, C7 and C8) assembled on E. coli (human) (UniProt P01031); assay: flow cytometry on cells; as a1 but Cy5-labelled C9 added with 10 mM DTT (the methods give 20 nM C8 added 15 min before C9 at RT)
[8] = target: C9 TMH-1 lock mutant (C9_(TMH-1 lock), F262C V405C) (human) (UniProt P02748); assay: SDS-PAGE of SDS-stable polymeric-C9, in-gel Cy5 fluorescence; as a3 but 20 nM Cy5-labelled C9 incubated with the C5b-8 labelled bacteria in 10 mM DTT

Sequence of wildtype C9 (C9wt) (P02748 22-559): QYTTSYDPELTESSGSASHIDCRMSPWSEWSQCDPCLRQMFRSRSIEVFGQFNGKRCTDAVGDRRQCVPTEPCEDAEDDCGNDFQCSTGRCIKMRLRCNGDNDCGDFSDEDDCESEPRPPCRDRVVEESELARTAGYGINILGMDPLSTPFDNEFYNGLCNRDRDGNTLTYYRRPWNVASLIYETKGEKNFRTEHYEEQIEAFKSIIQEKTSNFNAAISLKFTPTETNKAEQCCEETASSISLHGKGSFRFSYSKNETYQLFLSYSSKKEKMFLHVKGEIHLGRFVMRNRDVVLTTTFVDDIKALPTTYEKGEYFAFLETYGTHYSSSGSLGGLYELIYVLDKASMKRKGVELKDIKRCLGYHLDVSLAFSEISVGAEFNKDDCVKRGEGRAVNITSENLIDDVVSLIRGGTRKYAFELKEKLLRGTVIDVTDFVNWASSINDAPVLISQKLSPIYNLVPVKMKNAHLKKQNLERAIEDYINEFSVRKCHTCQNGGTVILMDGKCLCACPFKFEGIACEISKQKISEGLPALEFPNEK

Row | Substance | fold binding against C9 (TMH-1 lock) [1] [fold] | fold binding against C9 (TMH-1 lock) [2] [fold] | fold binding against C9 (TMH-1 lock) [3] [fold] | fold binding against C9 (TMH-1 lock), on CGSC7740 wildtype [3] [fold] | fold binding against C9 (TMH-1 lock), on 552059.1 with up to 10-fold more C9 [4] [fold] | fold binding against C9 (TMH-1 lock), on CGSC7740 wbbL+ [4] [fold] | bacterial viability (CFU) of C5b-8 labelled E. coli MG1655 with 100 nM C9, decrease compared to C5b-8 alone [5] [fold] | bacterial viability (CFU) of E. coli MG1655 in 3% C9-depleted serum with 25 nM C9 after 30 min, against C9wt [6] [fold] | outer membrane damage (DiOC2) and inner membrane damage (Sytox) of E. coli MG1655 in 3% C9-depleted serum with 25 nM C9, delay against C9wt [6] [min] | fold binding with DTT against C9 (TMH-1 lock) without DTT [7] [fold] | fold lower binding against C9wt with DTT [7] [fold] | fold lower polymeric-C9 detection against C9wt with DTT [8] [fold]
1 | wildtype C9 (C9wt) (from UniProt P02748 22-559) (natural protein) | < 10 | 10 | 5 to 15 | 12 | 2 to 3 | 2.5 | – | – | – | – | – | –
2 | C9 TMH-1 lock mutant (C9_(TMH-1 lock), F262C V405C) (from UniProt P02748 22-559) (natural protein) | – | – | – | – | – | – | 10 | 1000 | 30 | 3 | 2 to 3 | 2 to 3
